Results reported in US20230399393A1, “METHODS TO EXTEND HEALTH-SPAN AND TREAT AGE-RELATED DISEASES” (National University of Singapore, priority 2020, published 2023).

Assays:
[1] = system: human hepatocytes; assay: IL-11 stimulation in the presence of DMSO or U0126, western blot; format: cell-based; conditions: IL-11 24 hours; U0126 10 μM
Description: FIG. 22. Western blot image showing the levels of p-ERK, ERK, p-P90RSK, P90RSK, p-LKB1, LKB1, p-AMPK, AMPK, p-mTOR, mTOR, p-p70S6K, p70S6K, p-S6RP, S6RP in primary human hepatocytes that are unstimulated (BL+DMSO) or stimulated for 24 hours with IL11 in the presence DMSO or U0126 (10 μM).
(§1) Primary human hepatic stellate cells and human hepatocytes were stimulated for 24 hours with IL-11 in the presence DMSO or U0126. As discussed in Example 4.4, the inventors observed that IL-11 treatment stimulates p-mTOR, p-70S6K and p-S6RP. In line with the inventors' hypothesis, administration of U0126 to IL-11-stimulated cells prevents ERK-mediated inactivation of LKB1/AMPK that stops IL11-induced mTORC1/P70S6K activation (FIG. 21 and FIG. 22, respectively).

[2] = system: Primary human cardiac fibroblasts; assay: IL-11-stimulated fibroblasts with Rapamycin, Wortmannin or U0126, western blot; format: cell-based; conditions: IL11 10 ng/ml 24 hours; Rapamycin 10 nM, Wortmannin 1 μM, U0126 10 μM
Description: FIG. 18. Western blot image showing the levels of p-LKB1, LKB1, p-AMPK, AMPK in primary human cardiac fibroblasts that are unstimulated (BL+DMSO) or stimulated with IL11 for 24 hours in the presence of either DMSO, Rapamycin, Wortmannin, or U0126. IL11(10 ng/ml), Rapamycin (10 nM), Wortmannin (1 μM), U0126 (10 μM).
Primary human cardiac fibroblasts were stimulated with IL-11 for 24 hours in the presence of either DMSO, Rapamycin (mTOR inhibitor), Wortmannin (phosphoinositide 3-kinases (PI3K) inhibitor), or U0126 (MEK1/2 inhibitor) and the levels of p-LKB1 and p-AMPK were measured by western blot (FIG. 18).

[3] = system: Primary human hepatic stellate cells; assay: IL-11 stimulation in the presence of DMSO or U0126, western blot; format: cell-based; conditions: IL-11 24 hours; U0126 10 μM
Description: FIG. 21. Western blot image showing the levels of p-ERK, ERK, p-P90RSK, P90RSK, p-LKB1, LKB1, p-AMPK, AMPK, p-mTOR, mTOR, p-p70S6K, p70S6K, p-S6RP, S6RP, SMA, and GAPDH in primary human hepatic stellate cells that are unstimulated (BL+DMSO) or stimulated for 24 hours with IL11 in the presence DMSO or U0126 (10 μM).
as §1

[4] = system: Primary human hepatic stellate cells (HSCs); assay: Increasing concentrations of IL-11 or IL-6, western blot p-LKB1/p-AMPK; format: cell-based; conditions: 24 hours; 1.25-20 ng/ml, even at the highest concentration
Description: (§2) FIG. 23. Western blot image showing the levels of p-LKB1, LKB1, p-AMPK, AMPK in primary human hepatocytes or primary human hepatic stellate cells that are unstimulated (BL) or stimulated for 24 hours with increasing concentrations (1.25, 2.5, 5, 10 or 20 ng/ml) of IL-11 or IL-6.
(§3) Primary human hepatic stellate cells (HSCs) and human hepatocytes were stimulated for 24 hours with increasing concentrations (1.25-20 ng/ml) of IL-11 or IL-6. […] The effect of IL-11 on these markers is observable at concentrations as low as 1.25 ng/ml in both HSCs and hepatocytes.

[5] = system: human hepatocytes; assay: as above; format: cell-based; conditions: 24 hours; 1.25-20 ng/ml, even at the highest concentration
Description: as §2, §3

[6] = system: rheumatoid synovial cells; conditions: upon treatment; cited from earlier work
[7] = system: AML12 cells; assay: In vitro model of senescence induction, qRT-PCR at day 7; format: cell-based, mouse; conditions: 2 ug/ml from day 2, H2O2 0.75 mM, vs isotype-matched control IgG
Description: Senescent hepatic mouse cells were generated from cells of the mouse hepatocyte cell line AML12 as described in Tripathi et al., Star Protocols (2020) 1:100064 (hereby incorporated by reference in its entirety).
Briefly, AML12 cells were grown to 50% confluency and senescence was induced by treating the cells with a sub-lethal concentration of H2O2 (0.75 mM) for 1 h, followed by 23 h recovery per day, for a total of 7 days (as described in Tripathi et al., Star Protocols (2020) 1:100064). From day 2 onwards, 2 ug/ml of X209/X203 or isotype-matched control IgG was added to the cultures during the 23h recovery period.
Total RNA was isolated at day 7, and levels of p21 (Cdkn1a), […], Il11 and Tgfb gene expression were evaluated by qRT-PCR. Briefly, total RNA was extracted from cell lysates using Trizol (Invitrogen) followed by RNeasy column (Qiagen) purification. cDNAs were synthesized with iScript™ cDNA synthesis kit (Bio-Rad) according to manufacturer's instructions. Gene expression analysis was performed with either TaqMan (Applied Biosystems) or fast SYBR green (Qiagen) using the StepOnePlus Real-Time PCT System (Applied Biosystems) over 40 cycles. Expression data for p21 (Cdkn1a), Il1b, Il11 and Tgfb were normalised to Gapdh expression, and fold change was calculated using the 2^−ΔΔCt method.

[8] = system: AML12; assay: Senescence reversal experiment, qPCR at day 10; format: cell-based, mouse; conditions: 2 μg/ml for 72 hours after 7 days senescence induction; vs IgG
Description: FIG. 25. (25A) Schematic of senescence reversal experiment for data shown in B-D. Senescent AML12 were generated for 7 days as described above. IgG/X203/X209 (2 μg/ml) was added into the cultures at the end of senescence induction period for 72 hours; cells were harvested at day 10 for RNA extraction and subsequent qPCR experiments. Relative mRNA expression of (25B) Cdkn1a (p21), (25C) Il1β, and (25D) Il11.
Briefly, senescent AML12 were generated for 7 days as described above, but IgG/X203/X209 (2 μg/ml) was added into the cultures at the end of senescence induction period for 72 hours.
(§4) Senescent AML12 were generated by treating the cells with a sub-lethal concentration of H2O2 (0.75 mM) for 1 hour, followed by 23 hours recovery per day, for 7 days as described (Tripathi, Yen, and Singh 2020, STAR Protocols 1 (2): 100064). For prevention study, AML12 cells were treated with 2 ug/ml of either IgG or X209 during the recovery period of the senescence induction stage (from day 1 to day 7); cells were harvested for total RNA collection at day 10. For reversal study, senescence was first induced for seven days followed by 2 ug/ml of IgG, X203, or X209 treatment for 3 days; cells were harvested for total RNA collection at day 10.
(§5) Total RNA was extracted from AML12 or snap-frozen tissues using Trizol (Invitrogen) and RNeasy Mini Kit (Qiagen). […] using iScript cDNA Synthesis Kit (Biorad). Gene expression analysis was performed on duplicate samples with either TaqMan (Applied Biosystems) for Il11 (Mm00434162) or fast SYBR green (Qiagen) technology using StepOnePlus™ (Applied Biosystem) for Ccl2, Ccl5, Gapdh, Il1β, Il6, Il8, p16, p21, Tnfα, over 40 cycles. Expression data were normalized to GAPDH mRNA expression and fold change was calculated using 2^−ΔΔct method.

[9] = system: Primary human cardiac fibroblasts; assay: IL11 or TGFβ1 stimulated fibroblasts with X203, X209 or IgG, western blot; format: cell-based; conditions: IL11/TGFβ1 10 ng/ml, 24 hours; antibody 2 μg/ml
Description: FIG. 19. Western blot image showing the levels of p-ERK, ERK, p-P90RSK, P90RSK, p-LKB1, LKB1, p-AMPK, AMPK, p-mTOR, mTOR, p-p70S6K, p70S6K, p-S6RP, S6RP, SMA, and GAPDH in primary human cardiac fibroblasts that are unstimulated (BL) or stimulated for 24 hours with either IL11 or TGFβ1 in the presence of X203, X209, or IgG (11E10) isotype control. IL11/TGFβ1 (10 ng/ml), IgG/X203/X209 (2 μg/ml).
Primary human cardiac fibroblasts were stimulated with IL11 or TGFβ1, or unstimulated (BL).

[10] = system: Primary human hepatocytes; assay: Hepatocytes stimulated with IL-11, BSA or palmitate with X203, X209 or IgG, western blot; format: cell-based; conditions: 24 hours; antibody 2 μg/ml; IL11 10 ng/ml or palmitate 0.5 mM
Description: FIG. 20. Western blot image showing the levels of p-ERK, ERK, p-P90RSK, P90RSK, p-LKB1, LKB1, p-AMPK, AMPK, p-Acetyl-CoA Carboxylase (p-ACC), Acetyl-CoA Carboxylase (ACC), p-mTOR, mTOR, p-p70S6K, p70S6K, p-S6RP, S6RP in primary human hepatocytes that are unstimulated (BL) or stimulated for 24 hours with either IL11, 0.5% BSA, or palmitate (saturated fatty acid) in the presence of X203, X209, or IgG (11E10) isotype control. IL11 (10 ng/ml), IgG/X203/X209 (2 μg/ml), palmitate (0.5 mM) conjugated in free BSA (0.5% BSA solution) in the ratio of 6:1.
Primary human hepatocytes (stimulated with IL-11, BSA or palmitate, or unstimulated) were treated with X203 (anti-IL-11 antagonist antibody) and X209 (anti-IL-11Rα antagonist antibody). […] Treatment with X203 or X209 essentially reverses the effect of palmitate stimulation on these markers to the levels observed in the unstimulated control.

[11] = system: AML12; assay: Senescence prevention experiment, qPCR at day 10; format: cell-based, mouse; conditions: 2 μg/ml during recovery period, vs IgG
Description: FIG. 24. (24A) Schematic of senescence prevention experiment for data shown in B-F. Senescent AML12 were generated by treating the cells with a sub-lethal concentration of H2O2 (0.75 mM) for 1 hour, followed by 23 hours recovery per day, for 7 days as described by Tripathi et. al. (2020). IgG/X209 (2 μg/ml) was added into the cultures during the 23 hours recovery period for 10 days; cells were harvested at day 10 for RNA extraction and subsequent qPCR experiments. Relative mRNA expression of (24B) Cdkn2a (p16), (24C) Cdkn1a (p21), (24D) Il1β, (24E) Il8, and (24F) Il11.
Briefly, senescent AML12 were generated by treating the cells with a sub-lethal concentration of H2O2 as described by Tripathi et. al. (2020) STAR Protocols 1 (2): 100064. IgG/X209 (2 μg/ml) was added into the cultures during the 23 hours recovery period for 10 days. Relative mRNA expression of Cdkn2a (p16), Cdkn1a (p21), Il1β, Il8, and Il11, as measured by qPCR is shown in FIGS. 24B, 24C, 24D, 24E and 24F, respectively. Markers of senescence (P16 and p21) and markers of inflammation (IL-1b, IL-11 and […]) are diminished in cells that have undergone IL-11-mediated signalling antagonism by X209.
as §4, §5

Molecule: N#CC(=C(/N)Sc1ccccc1N)/C(C#N)=C(\N)Sc1ccccc1N [U0126]
- ERK-mediated inactivation of LKB1/AMPK [1]: prevents
- IL11-induced mTORC1/P70S6K activation [1]: stops
- level of p-AMPK [2]: increases
- level of p-LKB1 [2]: decreases
- ERK-mediated inactivation of LKB1/AMPK [3]: prevents
- IL11-induced mTORC1/P70S6K activation [3]: stops

Molecule: IL-6: cytokine used as comparator stimulus to IL-11
- inactivation of LKB1 or activation of AMPK [4]: does not induce
- inactivation of LKB1 or activation of AMPK [5]: does not induce

Molecule: COc1ccc2c(c1)c(CC(=O)O)c(C)n2C(=O)c1ccc(Cl)cc1 [indomethacin, reference compound]
- expression of IL-11 [6]: reduction

Molecule: interferon-gamma: interferon-gamma (IFNγ)
- expression of IL-11 [6]: reduction

B1: X209: mouse anti-mouse IL-11Rα IgG antagonist antibody; VH SEQ ID NO:24, VL SEQ ID NO:25 (antibody, V domains shown)
VH: QVQLQQPGAELVRPGSSVKLSCKASGYTFTNYWMHWLKQRPVQGLEWIGNIGPSDSKTHYNQKFKDKATLTVDKSSSTAYMQLNSLTSEDSAVYYCARGDYVLFTYWGQGTLVTVSA
VL: DIVLTQSPATLSLSPGERATLSCRASQSISNNLHWYQQKSHEAPRLLIKYASQSISGIPARFSGSGSGTDFTLSFSSLETEDFAVYFCQQSYSWPLTFGQGTKLEIK
- gene expression of Il11 [7]: significantly reduce
- gene expression of Il11b [7]: significantly reduce
- gene expression of Tgfb [7]: significantly reduce
- gene expression of p21 (Cdkn1a) [7]: significantly reduce
- inflammation marker IL-1 b [8]: significantly reduce
- inflammation marker IL-11 [8]: significantly reduce
- senescence marker p21 [8]: significantly reduce
- level of phosphorylation of markers ERK, p90RSK, LKB1, mTOR, p70S6K and S6RP [9]: significantly reduce
- levels of p-AMPK and p-ACC [10]: increase
- levels of phosphorylated markers p-ERK, p-p90RSK, p-LKB1, p-mTOR, p-p70S6K and p-S6RP [10]: reduces
- marker of inflammation IL-1b mRNA [11]: diminished
- marker of inflammation IL-6 [11]: diminished
- marker of inflammation IL-11 mRNA [11]: diminished
- marker of senescence P16 (Cdkn2a) mRNA [11]: diminished
- marker of senescence p21 (Cdkn1a) mRNA [11]: diminished
